From paper PMC11349179, “Comparative analysis of the LARP1 C-terminal DM15 region through Coelomate evolution” (PLOS ONE, 2024)

Columns and labels:
DrDM15 (zebrafish) = DrDM15 (zebrafish) (UniProt F1R0U5); experiment: EMSA; conditions: 5' m7G cap (Vaccinia capping), EMSA: 20 mM Tris-HCl pH 8, 150 mM NaCl, 10% glycerol, 1 mM DTT, 0.5 ug tRNA, 1 ug BSA, pM RNA (95 C, snap cooled), native 7% PAGE, 0.5X TBE
DmDM15 [1] = molecular target: T1, DmDM15 (Drosophila melanogaster, UniProt Q9VAW5); experiment: differential scanning fluorimetry (SYPRO Orange); type: binding; conditions: 5 uM protein, 500 uM ligand; 50 mM Tris-HCl pH 8, 100 mM NaCl, 0.6 mM DTT, 10% glycerol
T1 construct: gene larp; C-terminal DM15 region; E. coli BL21(DE3); His6-MBP tag removed with TEV protease; monomer

HsDM15 [2] = molecular target: T2, HsDM15 (Homo sapiens, UniProt Q6PKG0); experiment: differential scanning fluorimetry (SYPRO Orange); type: binding; conditions: 5 uM protein, 500 uM ligand; 50 mM Tris-HCl pH 8, 100 mM NaCl, 0.6 mM DTT, 10% glycerol
T2 construct: gene LARP1; C-terminal DM15 region; E. coli BL21(DE3); His6-MBP tag removed with TEV protease; monomer; residues 796-941 used in simulation only

DrDM15 = molecular target: T3, DrDM15 (Danio rerio, UniProt A0A8M9P457); experiment: differential scanning fluorimetry (SYPRO Orange); type: binding; conditions: 5 uM protein, 500 uM ligand; 50 mM Tris-HCl pH 8, 100 mM NaCl, 0.6 mM DTT, 10% glycerol
T3 construct: gene larp1; C-terminal DM15 region, residues 754-904; E. coli BL21(DE3); His6-MBP tag removed with TEV protease; Gly6 linker after TEV site; monomer

DmDM15 [3] = molecular target: DmDM15 (fruit fly, UniProt A0A0B4K7Y7 1330-1481); experiment: EMSA; EMSA: 20 mM Tris-HCl pH 8, 150 mM NaCl, 10% glycerol, 1 mM DTT, 0.5 ug tRNA, 1 ug BSA, pM RNA (95 C, snap cooled), 0.5-1 h on ice; native 7% PAGE, 0.5X TBE; conditions: protein: recombinant, tags: His6-MBP removed by TEV, label: 32P in cap
HsDM15 [4] = molecular target: T4, HsDM15 (Homo sapiens, UniProt Q6PKG0-3 796-946); experiment: as above; conditions: protein: recombinant, tags: His6-MBP removed by TEV, label: 32P in cap
HsDM15 [5] = molecular target: T4, HsDM15; experiment: EMSA; stated only as picomolar affinity; EMSA: 20 mM Tris-HCl pH 8, 150 mM NaCl, 10% glycerol, 1 mM DTT, 0.5 ug tRNA, 1 ug BSA, pM RNA (95 C, snap cooled), 0.5-1 h on ice; native 7% PAGE, 0.5X TBE; conditions: protein: recombinant; tags: His6-MBP removed by TEV; label: 32P in cap
[6] = 5' end paired in one predicted fold

Sequence of DmDM15 (fruit fly, UniProt A0A0B4K7Y7 1330-1481) (A0A0B4K7Y7 entry or part of it): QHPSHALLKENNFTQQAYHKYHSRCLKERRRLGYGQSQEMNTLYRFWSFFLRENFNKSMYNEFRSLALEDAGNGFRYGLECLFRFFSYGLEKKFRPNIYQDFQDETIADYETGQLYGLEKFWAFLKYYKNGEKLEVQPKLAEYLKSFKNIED
T1 sequence (Q9VAW5 1330-1481): as the sequence (A0A0B4K7Y7 entry or part of it) above
T3 sequence (A0A8M9P457 778-928): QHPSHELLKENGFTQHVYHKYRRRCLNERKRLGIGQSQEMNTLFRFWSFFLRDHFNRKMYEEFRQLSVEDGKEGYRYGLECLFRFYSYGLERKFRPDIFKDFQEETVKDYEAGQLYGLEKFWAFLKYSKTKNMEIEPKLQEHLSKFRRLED

With “CCUCUUUUCCGUGGCGCCUCGGAGGCGUUCAGCUGCUUCAAG [HsRPS6 42-mer, capped]” the Kd (DrDM15 (zebrafish); 0.5-1 h on …) was 10000 pM.

“CCUUCUCCCCGCUUAUCUCUUUGAGAUAAAUGCAUAUUUUUU [HsPABPC1_Stem, capped]” showed a Kd (DrDM15 (zebrafish); 0.5-1 h on …) of 6900 pM.

Work on “CCUUCUCCCCGGCGGUUAGUGCUGAGAGUGCGGAGUGUGUGC [HsPABPC1 42-mer, capped]” yielded a Kd (DrDM15 (zebrafish); 0.5-1 h on …) of 97000 pM.

“CCUCUUUUCCGCUUAUCUCUUUGAGAUAAAUGCAUAUUUUUU [HsRPS6_Stem, capped]” was tested, and the Kd (DrDM15 (zebrafish); 0.5-1 h on …) was 7900 pM.

With “CUUUUGCCAUUGUCAGCCGACGAAGUGCUUUAACCCAAACUA [DmRPL30 42-mer, capped]” the Kd (DrDM15 (zebrafish); stated only as picomolar affinity, 0.5-1 h on ice) was under 1000 pM.

With C[n+]1cn([C@@H]2O[C@H](COP(=O)(O)OP(=O)(O)OP(=O)(O)O)[C@@H](O)[C@H]2O)c2nc(N)[nH]c(=O)c21 [m^7GTP] the Tm (DmDM15 [1]) was “thermal stabilization of all three orthologs in the presence of a cap analog (Fig 3D)”, the Tm (HsDM15 [2]) was “thermal stabilization of all three orthologs in the presence of a cap analog (Fig 3D)” and the Tm (DrDM15) was “thermal stabilization of all three orthologs in the presence of a cap analog (Fig 3D)”.

CCUCUUUUCCGUGGCGCCUCGGAGGCGUUCAGCUGCUUCAAG (structured_RNA, 5' m7G cap (Vaccinia capping)) [HsRPS6 42-mer, capped] was tested, and the Kd (DmDM15 [3]; hairpin (predicted)) was 58 ± 0.02 nM and the Kd (HsDM15 [4]; hairpin (predicted)) was 3.9 ± 0.2 nM.

Molecule CCUCUUUUCCGCUUAUCUCUUUGAGAUAAAUGCAUAUUUUUU (structured_RNA, 5' m7G cap (Vaccinia capping)) [HsRPS6_Stem, capped] has a Kd (DmDM15 [3]; hairpin (predicted)) of 29 ± 0.06 nM and a Kd (HsDM15 [4]; hairpin (predicted)) of 1.9 ± 0.05 nM.

With CCUUCUCCCCGCUUAUCUCUUUGAGAUAAAUGCAUAUUUUUU (structured_RNA, 5' m7G cap (Vaccinia capping)) [HsPABPC1_Stem, capped] the Kd (DmDM15 [3]; hairpin (predicted)) was 6.1 ± 0.03 nM and the Kd (HsDM15 [4]; hairpin (predicted)) was 1.5 ± 0.04 nM.

In the case of CUUUUGCCAUUGUCAGCCGACGAAGUGCUUUAACCCAAACUA (ssRNA, 5' m7G cap (Vaccinia capping)) [DmRPL30 42-mer, capped], the Kd (HsDM15 [5]) is reported as under 1 nM.

In the case of CCUUCUCCCCGGCGGUUAGUGCUGAGAGUGCGGAGUGUGUGC (structured_RNA, 5' m7G cap (Vaccinia capping)) [HsPABPC1 42-mer, capped], the Kd (DmDM15 [3]; [6]) is reported as 140 ± 0.02 nM and the Kd (HsDM15 [4]; [6]) is reported as 18 ± 0.06 nM.
